Laboratory results reported in patent US20240398942A1, “USE OF ANTI-CD40 ANTIBODY” (CHIA TAI TIANQING PHARMACEUTICAL GROUP CO., LTD., priority 2021, published 2024).
Like-named read-outs stand apart in the source and are kept apart here. One block for each molecule: values may come before it.

Tests used:
binding of CD40 to CD40L = binding of CD40 to CD40L (Homo sapiens, UniProt P25942); assay: Ligand blocking competitive ELISA; details: in words, FIG. 5
Method: The ability of the anti-CD40 antibody to block the binding of CD40 to CD40L was determined by competitive ELISA. Briefly, a human CD40-Fc protein (amino acid residues 21-193 of SEQ ID NO: 30 linked to the N terminus of amino acid residues 99-330 of SEQ ID NO: 28) dissolved in the immobilization buffer (carbonate/bicarbonate buffer) at a concentration of 2 μg/mL was immobilized on a 96-well plate at 100 μL/well and incubated overnight at 4° C. The next day, the plate was washed once with a washing buffer (PBS+0.05% v/v of Tween-20, PBST) before a PBST containing 5% w/v of skim milk was added. The plate was then incubated at 37° C. for 2 h for blocking. The plate was then washed 4 times with the washing buffer.
The anti-CD40 antibody of the present application or the benchmark was serially 5-fold diluted from 200 nM in a PBST containing 2.5% w/v of skim milk, and the serially diluted anti-CD40 antibody or benchmark was added at 100 μL/well to a plate coated with CD40-Fc protein and incubated at 37° C. for 40 min. […] The absorbance of each well was read on a microplate reader using the dual wavelength mode (TMB detection wavelength: 450 nm, reference wavelength: 630 nm). […] Data were analyzed using Graphpad Prism software, and IC50 values were obtained.

[1] = test system: CD40 signal transduction in 293T-NF-κB-Luc-CD40 cells; assay: Cell-based reporter assay; parameters: species or system human; details: in words, FIGS. 2A-2C and 7
From the text: The agonistic activity of the anti-CD40 antibody of the present application was further determined in a CD40 expression reporter cell line 293T-NF-κB-Luc-CD40, which stably expresses full-length human CD40 (uniprot No. P25942-1, SEQ ID NO: 30). According to the instructions of lipofectamine 3000 transfection reagent (Thermo Fisher), a pGL4.32 [luc2P NF-κB-RE Hygro] vector (Promega, GenBank® Accession No. EU581860) and a pCMV-T-P plasmid (with a CD40 coding sequence inserted between the EcoRI and Khal loci) were transfected into 293T cells in sequence to prepare 293T-NF-κB-Luc-CD40 cells.
Briefly, 293T-NF-κB-Luc-CD40 cells at the log phase were resuspended in DMEM medium (Gibco Inc., Cat. No. 10566-016) containing 10% of FBS (Gibco Inc., Cat. No. 10099-141), and seeded on a 384-well plate (Corning, Cat. No. 3707) at 20 μL/well (containing 5×10^3 cells). Then, the anti-CD40 antibody of the present application or the controls (including an in-house prepared anti-CD22 antibody as a negative control) serially 3-fold diluted from 200 nM in the medium was added at 20 μL per well and incubated at 37° C. for 6 h. […] The chemiluminescence values were measured using Tecan Infinit® 200 Pro. Data were analyzed using Graphpad Prism software, and EC50 values were obtained.

[2] = molecular target: Cynomolgus monkey CD40-his; assay: Biacore surface plasmon resonance affinity and binding kinetics; details: Table 5, Biacore; for Ka: purified antibodies
From the text: (§1) The affinity and binding kinetics of the anti-CD40 antibody in the present application were characterized by a Biacore T200 system (GE Healthcare, Pittsburgh, PA, USA).
(§2) Briefly, a goat anti-human IgG (GE Healthcare, Cat. No. BR100839, human antibody capture kit) was covalently linked to a CM5 chip (GE Healthcare, Cat. No. BR100530, carboxymethylated dextran-coated chip) via the primary amine group using a standard amine coupling kit supplied by Biacore (GE Healthcare, Pittsburgh, PA, USA). Unreacted portions on the biosensor surface were blocked with ethanolamine. Then, the anti-CD40 antibody of the present application and two benchmark antibodies (BM1 (dacetuzumab, Genentech Inc., also referred to CD40-BM1, prepared in-house; the heavy and light chain amino acid sequences are set forth in SEQ ID NOs: 40 and 41, respectively) and BM2 (selicrelumab, Abgenix Inc., also referred to CD40-BM2, prepared in-house; the heavy and light chain amino acid sequences are set forth in SEQ ID NOS: 42 and 43, respectively)) at a concentration of 66.67 nM were directed through the chip at a flow rate of 10 μL/min. Then, serially diluted recombinant human CD40-his (Acro biosystems, Cat. No. CD0-H5228, serially 2-fold diluted from 80 nM in HBS-EP^+ buffer (supplied by Biacore)) or cynomolgus monkey CD40-his protein (Acro biosystems, Cat. No. CD0-C52H6, serially 2-fold diluted from 80 nM in HBS-EP^+ buffer (supplied by Biacore)) was directed through the chip at a flow rate of 30 μL/min. The antigen-antibody binding kinetics was tracked for 2 min and the dissociation kinetics was tracked for 10 min. The association and dissociation curves were fitted to a 1:1 Langmuir binding model using BIAcore evaluation software. KD, Ka, and Kd values were determined.

Human CD40-his = molecular target: T1, Human CD40-his (Homo sapiens, UniProt P25942); assay: as above; details: Table 5, Biacore; for Ka: purified antibodies
T1 construct: His; purchased Acro biosystems CD0-H5228
From the text: as §1, §2

T1 sequence (P25942 21-277): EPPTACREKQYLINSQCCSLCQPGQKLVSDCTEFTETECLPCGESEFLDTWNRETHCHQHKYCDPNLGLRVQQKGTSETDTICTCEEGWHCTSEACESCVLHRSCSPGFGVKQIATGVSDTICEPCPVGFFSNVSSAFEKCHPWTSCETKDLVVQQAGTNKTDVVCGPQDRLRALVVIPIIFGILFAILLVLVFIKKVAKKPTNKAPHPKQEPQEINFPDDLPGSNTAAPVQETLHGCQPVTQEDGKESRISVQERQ
Sequence of binding of CD40 to CD40L (P25942 21-193): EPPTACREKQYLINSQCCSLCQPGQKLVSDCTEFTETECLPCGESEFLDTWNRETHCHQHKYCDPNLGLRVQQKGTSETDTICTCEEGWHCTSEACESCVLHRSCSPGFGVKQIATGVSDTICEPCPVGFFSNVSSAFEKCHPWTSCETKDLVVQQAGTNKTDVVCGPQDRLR

Kd ([2]; dissociation rate): 0.002371 s⁻¹
Ka [2]: 2.14e+06 M⁻¹ s⁻¹
Kd ([2]; read-out: KD): 1.11 nM
Kd (Human CD40-his; dissociation rate): 0.00248 s⁻¹
Ka (Human CD40-his): 2.25e+06 M⁻¹ s⁻¹
Kd (Human CD40-his; read-out: KD): 1.1 nM
B1: huC1H1-V1: humanized C1H1 anti-CD40 antibody, VH SEQ ID NO: 20 X1=A, VL SEQ ID NO: 24 X1=K X2=F, human IgG2/κ (antibody, V domains shown)
VH: EVQLVESGGGLVKPGGSLRLSCAASGFTFSNYGISWVRQAPGKGLEWVXSISSGGDNTYYPDNVKGRFTISRDNAKNSLYLQMNSLRAEDTAVYYCARAGEKAMDYWGQGTLVTVSS
VL: EIVLTQSPATLSLSPGERATLSCRASQTINNNLHWYQQKPGQAPRLLIXYASQSISGIPARFSGSGSGTDFTLTISSLEPEDFAVYXCQQFSSWPLTFGGGTKVEIK
modifications: not fully specified; human IgG2/kappa constant regions; VH of huC1H1-V1 to huC1H1-V4; VARIANT 49 X can be A or S; VL of huC1H1-V1 to huC1H1-V4; VARIANT 49 X can be K or Y; VARIANT 87 X can be F or Y
Blocking of the binding of CD40 to CD40L (binding of CD40 to CD40L): comparable or slightly lower blocking activity relative to BM1 and BM2
Agonistic activity (activation of CD40 signal transduction) [1]: higher than those of BM1 and BM2

B2: huC1H1-V2: humanized C1H1 anti-CD40 antibody, VH SEQ ID NO: 20 X1=S, VL SEQ ID NO: 24 X1=K X2=F, human IgG2/κ (antibody, V domains shown)
VH: B1 VH
VL: B1 VL
modifications: not fully specified; variable positions X1=S; VL X1=K X2=F; IgG2/kappa constant; VH of huC1H1-V1 to huC1H1-V4; VARIANT 49 X can be A or S; VL of huC1H1-V1 to huC1H1-V4; VARIANT 49 X can be K or Y; VARIANT 87 X can be F or Y
Blocking of the binding of CD40 to CD40L (binding of CD40 to CD40L): comparable or slightly lower blocking activity relative to BM1 and BM2
Agonistic activity (activation of CD40 signal transduction) [1]: higher than those of BM1 and BM2
Kd ([2]; dissociation rate): 0.002735 s⁻¹
Ka [2]: 2.56e+06 M⁻¹ s⁻¹
Kd ([2]; read-out: KD): 1.07 nM
Kd (Human CD40-his; dissociation rate): 0.002704 s⁻¹
Ka (Human CD40-his): 2.31e+06 M⁻¹ s⁻¹
Kd (Human CD40-his; read-out: KD): 1.17 nM
